In publication PMC6829599 (The Journal of Experimental Medicine, 2019):

Key:
[1] = molecular target: recombinant PCNA (proliferating cell nuclear antigen) (human) (UniProt P12004); experiment: SPR
[2] = molecular target: recombinant PCNA (proliferating cell nuclear antigen) (human, UniProt P12004 1-261); experiment: SPR

Molecule | Kd [1] | k (backward) (two-state model, second step) [1] | k (forward) (two-state model, second step) [1] | ka1 (two-state model, first step) [1] | kd1 (two-state model, first step) [1] | Kd [2] | kon [2]
recombinant human Rac2 (from UniProt P15153 1-192) (natural protein; other documents disagree on this pair) | 3.3 µM | 0.00066 s⁻¹ | 0.0057 s⁻¹ | 541 M⁻¹ s⁻¹ | 0.017 s⁻¹ |  | 
p47phox PX domain (truncated p47phox, residues 2–132) (domain or fragment) GDTFIRHIALLGFEKRFVPSQHYVYMFLVKWQDLSEKVVYRRFTEIYEFHKTLKEMFPIEAGAINPENRIIPHLPAPKWFDGQRAAENRQGTLTEYCSTLMSLPTKISRCPHLLDFFKVRPDDLKLPTDNQ |  |  |  |  |  | 33 µM | 85.2 M⁻¹ s⁻¹
